Assay results taken from the RNAGym collection of RNA variant scans (doi:10.7554/elife.90254).

B1: LINE1-full (parent)
chain: UACGUAGGUGGUUUUCCCCUGAUAGUGCUAAGGGGGCCUGGAAGUUUGGACUGGGCAGAGCUCAACACAGCGUGGCAAAGUGGCUGUGGCUAGACUGCCUCUCUGGAUUCCUCGUCACUCAGCAGGGCAUCUCUGAGAGAAAUGCC

Variants of: B1
Experiment: self-cleavage, relative activity (ratio to wild type); higher = more cleavage; in vitro, sequencing; the parent is a self-cleaving ribozyme

Variant | self-cleavage
UACGUAGGUGGUUUUCCCCUGAUAGUGCUAAGGGGGCCUGGAAGUUUGGACUGGGCAGAGCUCAACACAGCGUGGCAAGGUGGCUGUGGCUAGACUGCCUCUCUGGAUUCCUCGACACUCAGCAGGGCAUCUCUGAGAGAAAUGCC [A79G U115A] | 1.4
UACGUAGGUGGUUUUCCCCAGAUAGUGCUAAGGGGGCCUGGAAGUUUGGACUGGGCAGAGCUCAACACAGCGUGGCAAAGUGGCUGUGGCUAGACUGCCUCUCUGGAUUCCUCGUCACUCAGCAGGGCAUCUCAGAGAGAAAUGCC [U20A U134A] | 0.92
UACGUAGGUGGUUUUCCCCUGAUAGUGCUAAGGGGGCCCGGAAGUUUGGACUGGGCAGAGCUCAACACAGCAUGGCAAAGUGGCUGUGGCUAGACUGCCUCUCUGGAUUCCUCGUCACUCAGCAGGGCAUCUCUGAGAGAAAUGCC [U39C G72A] | 1.07
UACGUAGGUGGUUUUCCCCUGAUAGUGCUAAGGGGGCCUGGAAGUUUGGACUGGGCAGAGAUCAACACAGCGUGGCAAAGCGGCUGUGGCUAGACUGCCUCUCUGGAUUCCUCGUCACUCAGCAGGGCAUCUCUGAGAGAAAUGCC [C61A U81C] | 0.04
UAGGUAGGUGGUUUUCCCCUGAUAGUGCUUAGGGGGCCUGGAAGUUUGGACUGGGCAGAGCUCAACACAGCGUGGCAAAGUGGCUGUGGCUAGACUGCCUCUCUGGAUUCCUCGUCACUCAGCAGGGCAUCUCUGAGAGAAAUGCC [C3G A30U] | 0.91
UACGUAGGUGGUUUUCCCCUGAUAGUGCUAAGGGGGCCUGGAAGUUUGGACUGGGCAGAGCUCAACACAGCAUGGCAAAGUGGCUGUGGCUAGACUGCCUCUCUGGAUUCCUCGUCACUCAGCAGGGCAUCUCAGAGAGAAAUGCC [G72A U134A] | 1.15
UACGUAGGUGGUUUUCCCCUGAUAGUGCUAAGGGGGCCUGGAAGUCUGGACUGGGCAGAGCUCAACACAGCGUGGCAAAGUGGCUGUGGCUAGACUGCCUCUCUGGAUUCCUCGUCACUCAGCAGGGCAUCUCUGAGAGUAAUGCC [U46C A140U] | 1.46
UACGUAGGUGGUUUUCCCCUGAUAGUGCUAAGGGGGCCUGGAAGUUUGGACCGGGCAGAGCUCAACACAGCGUGGCAAAGUGGCUGUGGCUAGACUGCCUCUCUGGAUUCCUCGUCACUUAGCAGGGCAUCUCUGAGAGAAAUGCC [U52C C120U] | 1.77
UACGUAGGUGGUUUUCCCCUGAUAGUGCUAAGGGGGCCUGGAAGUUUGGACUGGGCAGAGCUCAACACAGCGUGGCAAAGUGGCUGUUGCUAGACUGCCUCUCUGGAUUCCUCGUCACUCAGCAGGGCAUCUCUGAGGGAAAUGCC [G88U A138G] | 0.06
UACGUAGGUGGGUUUCCCCUGAUAGUGCUAAGGGGGCCUGGAAGUUUGGACUGGGCAGAGCUCAACACAGCGUGGCAAAGUGGCUGUGGCUAGACUGCCUCUCUGGAUUCCUCGUCACUCAGCAGGGCAUCUCUGAGGGAAAUGCC [U12G A138G] | 1.29
UACGUAGGUGGUUUUCCCCUGAUAGAGCUAAGGGGGCCUGGAAGUUUGGACUGGGCAGAGCUCAACACAACGUGGCAAAGUGGCUGUGGCUAGACUGCCUCUCUGGAUUCCUCGUCACUCAGCAGGGCAUCUCUGAGAGAAAUGCC [U26A G70A] | 0.11
UACGUAGGUGGUUUGCCCCUGAUAGUGCUAAGGGGGCCUGGAAGUUUGGACUGGGCAGAGCUCAACACAGCGUGGCAAAGUGGCUGUGGCUAGACUGCCUCUCUGGAUUCCUCGUCACUCAGCUGGGCAUCUCUGAGAGAAAUGCC [U15G A124U] | 0.58
UACGUAGGUGGUUUUCCCCUGAUAGUGCUAAGGGGGCCUGGAGGUUUGGACUGGGCAGAGCUCAACACAGCGUGGCAAAGUGGCUGUGGCUAGAUUGCCUCUCUGGAUUCCUCGUCACUCAGCAGGGCAUCUCUGAGAGAAAUGCC [A43G C95U] | 0.16
UACGUAGGUGGUUUUCCCCUGAUAGUGCUAAGGGGGCCUGGAAGUUUGGACUGGGCAGAGCUCAACAUAGCGUGGCAAAGUGGCUGUGGCUAGACCGCCUCUCUGGAUUCCUCGUCACUCAGCAGGGCAUCUCUGAGAGAAAUGCC [C68U U96C] | 0.04
UACGUAGGUGGUUUUCCCUUGAUAGUGCUAAGGGGGCCUGGAAGUUUGGACUGGGCAGAGCUCAGCACAGCGUGGCAAAGUGGCUGUGGCUAGACUGCCUCUCUGGAUUCCUCGUCACUCAGCAGGGCAUCUCUGAGAGAAAUGCC [C19U A65G] | 0.14
UACGUAGGUGGUUUUCCCCUGAUAGCGCUAAGGGGGCCUGGAAGCUUGGACUGGGCAGAGCUCAACACAGCGUGGCAAAGUGGCUGUGGCUAGACUGCCUCUCUGGAUUCCUCGUCACUCAGCAGGGCAUCUCUGAGAGAAAUGCC [U26C U45C] | 1.07
UACGUAGGUGGUUUUCCCCUGAUAGUGCUAAGGGGGCCUGGAAGUUUGGACUGGGCAGUGCUCAACACAGCGUGGCAAAGUGGCUGUGGCUAGACUGCUUCUCUGGAUUCCUCGUCACUCAGCAGGGCAUCUCUGAGAGAAAUGCC [A59U C99U] | 0.46
UACGUAGGUGGUUUUCCCCUGAUAGUGCUAAGGCGGCCUGGAAGUUUGGACUGGGCAGAGCUCAACACAGCGUGGCAAAGUGGCUGUGGCUAGACUGCCUCUCUGGAUUCCUCGUCACUCAGCAGGGCAUCUCUGGGAGAAAUGCC [G34C A136G] | 1.79
UACGUAGGUGGUUUUCCCCUGAUAGUGCUAAGGGGGCCUGGAAGUUUGGACUGGGCAGAGCUCAACACAGCGUGGCAAAGUGGCUGUGGCUAGACUGCUUCUCUGGAUUCCUCGUCACUCAGCUGGGCAUCUCUGAGAGAAAUGCC [C99U A124U] | 0.42
UACGUAGGUGGUUUUCCCCUGAUAGUGCUAAGGGGGCCUGGAAGUUUGGACUGGUCAGAGCUCAACACAGCGUGGCAAAGUGGCUGUGGCUAGACUGCCUCUCUGGAUUCCUCGUCACUCAGCAGGGCAUCUCUGAGAGAAAUGCC [G55U] | 0.19

Variant | self-cleavage
UACGUAGGUGGUUUUCCCCUGAUAGUGCUAAGGGGGCCUGGGAAUUUGGACUGGGCAGAGCUCAACACAGCGUGGCAAAGUGGCUGUGGCUAGACUGCCUCUCUGGAUUCCUCGUCACUCAGCAGGGCAUCUCUGAGAGAAAUGCC [A42G G44A] | 1.27
UACGUAGGUGGUUUUCCCCUGAUAGUGCUAAGGGGGCCUGGAAGUUUGGACUGGGCAGAGCUCAACACAGCGUGGCAAAGUGGCUGUGGCUAGACUGCCUCUCUGGAUUCCUCGACACUCGGCAGGGCAUCUCUGAGAGAAAUGCC [U115A A121G] | 1.47
UACGUAGGUGGUCUUCCCCUGAUAGUGCAAAGGGGGCCUGGAAGUUUGGACUGGGCAGAGCUCAACACAGCGUGGCAAAGUGGCUGUGGCUAGACUGCCUCUCUGGAUUCCUCGUCACUCAGCAGGGCAUCUCUGAGAGAAAUGCC [U13C U29A] | 0.95
UACGUAGGUGGUUUUCCCCUGAUAGUGCUAAGGGGGCCUGGAAGUUUGGUCCGGGCAGAGCUCAACACAGCGUGGCAAAGUGGCUGUGGCUAGACUGCCUCUCUGGAUUCCUCGUCACUCAGCAGGGCAUCUCUGAGAGAAAUGCC [A50U U52C] | 0.89
UACGUAGGUGGUUUUCCCCUGAUAGUGCUAAGGGGGCCUGAAAGUUUGGACUGGGCAGAGCUCAACACAGCGUGGCAAAGUGGCUGUGGCUAGACUGCCUCUCUGGAUUCCUCGUCACUCGGCAGGGCAUCUCUGAGAGAAAUGCC [G41A A121G] | 1.15
UACGUAGGUGGUUUUCCCCUGAUAGUGCUAAGGGGACCUGGAAGUUUGGACUGGGCAGAGCUCGACACAGCGUGGCAAAGUGGCUGUGGCUAGACUGCCUCUCUGGAUUCCUCGUCACUCAGCAGGGCAUCUCUGAGAGAAAUGCC [G36A A64G] | 0.13
UACGUAGGUGGUUUUCCCCUGGUAGUGCUAAGGGGGCCUGGAAGUUUGGACUGAGCAGAGCUCAACACAGCGUGGCAAAGUGGCUGUGGCUAGACUGCCUCUCUGGAUUCCUCGUCACUCAGCAGGGCAUCUCUGAGAGAAAUGCC [A22G G54A] | 0.75
UACGUAAGUGGUUUUCCCCUGAUAGUGCUAAGGGGGCCUGGAAGUUUGGACUGGGCAGAGCUCAACACAGCGUGGCAAAGUGGCUGAGGCUAGACUGCCUCUCUGGAUUCCUCGUCACUCAGCAGGGCAUCUCUGAGAGAAAUGCC [G7A U87A] | 0.04
UACGUAGGUGGUUUUCCCCUGAUAGUGCUAAGGGUGCCUGGAAGUUUGGACUGGGCAGAGCUCAACACAGCGUGGCAAAGUGGCUGUGGCUAGACUGCCUCUCUGGAUUCCUCGUCACUCAGCAGGGCAUCUCCGAGAGAAAUGCC [G35U U134C] | 1.12
UACGUAGGUGGUUUUCCCCUGAUAGUGCUAAGGGGGCCUGGAAGUUUGGACUGGGCAGAGCUCAACACAGCGUGGCAAAGUGGCUGUGGCUAGACUGCCUCUCUGGAUUCCUCGUCACUCAACAGGGCGUCUCUGAGAGAAAUGCC [G122A A129G] | 1.19
UACGUAGGUGGUUUUCCCCUGAUAGUGCUAAGGGGGCCUGGAAGUUUGAACUGGGCAGAGCUCAACACAGCGUGGCAAAGUGGCUGUGGCUAGACUGCCUCUCUGGAUUCCUCGUCUCUCAGCAGGGCAUCUCUGAGAGAAAUGCC [G49A A117U] | 1.05
UACGUAGGUGGUUUUCCCCUGAUAGUGCUAAGGGGGCCUGGAAGUUUGGACUGGGCAGAGCUCUACACAGCGUGGCAAAGUGGCCGUGGCUAGACUGCCUCUCUGGAUUCCUCGUCACUCAGCAGGGCAUCUCUGAGAGAAAUGCC [A64U U85C] | 0.08
UACGUAGGUGGUUUUCCCCUGAUAGUGCUAAGGGGGCCUGGAAGUUUGGGCUGGGCAGAGCUCAACACAGCGUGGCAAAGUGGCUGUGGCUAGACUGCCUCUCUGGAUUCCUCGUCACUCAGCAGGGCAUCUCUGAGAGAAAUGCC [A50G] | 0.9
UACGUAGGUGGUUUUCCCCUGAUAGUGCUAAGGGGGCCUGGAAGUUUGGACUGGGCAGAGCUCAACACAGCGUGGCAAAGUGUCUGUGGCUAGACUGCCUCUCUGGAUUCCUCGUCACUCAGCAGGGCAUCUCUGAGAGAAACGCC [G83U U143C] | 1.01
UACGUAGGUGGUUUUCCCCUGAUAGUGCUAAGGGGGCCUGGAUGUUUGGACUGGGCAGAGCUCAACACAGCGUGGCAAAGUGGCUGUGGCUAGACUGCCUCGCUGGAUUCCUCGUCACUCAGCAGGGCAUCUCUGAGAGAAAUGCC [A43U U102G] | 0.75
UACGUAGGUGGUUUUCCCCUGAUAGUGCUAAGGGGUCCUGGAAGUUUGGACUGGGCAGAGCUCAACACAGCGUGGCAAAGUGGCUGUGGCUAGGCUGCCUCUCUGGAUUCCUCGUCACUCAGCAGGGCAUCUCUGAGAGAAAUGCC [G36U A94G] | 0.12
UACGUAGGUGGUUUUCCCCUGAUAGUGCUAAGGGGGCCUGGAAGUUUGGACUGGGCAGAGCUCAACACAGCGUGGCAAAGUGGCCGUGGCUAGACUGCCUCUCUGGAUUCCUCGUCACUCAGCAGGGCAUCUCUGAGAGAAAAGCC [U85C U143A] | 0.19
UACGUAGGCGGUUUUCCCAUGAUAGUGCUAAGGGGGCCUGGAAGUUUGGACUGGGCAGAGCUCAACACAGCGUGGCAAAGUGGCUGUGGCUAGACUGCCUCUCUGGAUUCCUCGUCACUCAGCAGGGCAUCUCUGAGAGAAAUGCC [U9C C19A] | 1.55
UACGUAGGUGGUUUUCCCCUGAUAGUGCUAAGGGGGCCUGGAAGUUUGGACUGGGCAGAGCUCAACACAGCGUGGCAAAGUGGCUGAGGCUAGACUGCCUCUCUGGAUUCCUCGUCACUCAGCUGGGCAUCUCUGAGAGAAAUGCC [U87A A124U] | 0.08
